In PMC3656048, “SAP97 Controls the Trafficking and Resensitization of the Beta-1-Adrenergic Receptor through Its PDZ2 and I3 Domains” (PLoS ONE, 2013) one finds EC50 data, which are given here for one molecule.

In this experiment the target is T1, GST-PDZ2 of SAP97 (rat).
T1 chain: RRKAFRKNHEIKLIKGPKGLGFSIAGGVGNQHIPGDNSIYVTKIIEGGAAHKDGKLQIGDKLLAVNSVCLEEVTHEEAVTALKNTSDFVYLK
The experiment can be described thus: pull-down; solubilized membranes of HEK-293 cells expressing 1.2 pmoles of FLAG ß1-AR per mg protein mixed with increasing concentrations of GST-PDZ2; GST pull-downs probed with anti-ß1-AR antibody, optical densities, estimated EC50, n = 3. As to conditions: one partner purified.

B1: full length WT FLAG ß1-AR (receptor)
chain: not shown
notes: human ß1-adrenergic receptor, wild type; also called FLAG-tagged WT ß1-AR; WT ß1-AR; not shown: FLAG, N-terminal, kept
On to B1, for which the EC50 was around 1 µM.

What is called EC50 is the concentration giving half of the maximal effect.
